# Test results as given in article PMC13233820, “Recruitment of Mre11 to recombination sites during meiosis” (Nature Communications, 2026).
# B1: Mre11-LLK: Mre11 (or its C49 fragment) with LLK residues mutated to alanine (protein, UniProt P32829 1-692, looked up, variant L683A L686A K690A)
# Double-strand break repair …: MDYPDPDTIRILITTDNHVGYNENDPITGDDSWKTFHEVMMLAKNNNVDMVVQSGDLFHVNKPSKKSLYQVLKTLRLCCMGDKPCELELLSDPSQVFHYDEFTNVNYEDPNFNISIPVFGISGNHDDASGDSLLCPMDILHATGLINHFGKVIESDKIKVVPLLFQKGSTKLALYGLAAVRDERLFRTFKDGGVTFEVPTMREGEWFNLMCVHQNHTGHTNTAFLPEQFLPDFLDMVIWGHEHECIPNLVHNPIKNFDVLQPGSSVATSLCEAEAQPKYVFILDIKYGEAPKMTPIPLETIRTFKMKSISLQDVPHLRPHDKDATSKYLIEQVEEMIRDANEETKQKLADDGEGDMVAELPKPLIRLRVDYSAPSNTQSPIDYQVENPRRFSNRFVGRVANGNNVVQFYKKRSPVTRSKKSGINGTSISDRDVEKLFSESGGELEVQTLVNDLLNKMQLSLLPEVGLNEAVKKFVDKDEKTALKEFISHEISNEVGILSTNEEFLRTDDAEEMKALIKQVKRANSVRPTPPKENDETNFAFNGNGLDSFRSSNREVRTGSPDITQSHVDNESRITHISQAESSKPTSKPKRVRTATKKKIPAFSDSTVISDAENELGDNNDAQDDVDIDENDIIMVSTDEEDASYGLLNGRKTKTKTRPAASTKTASRRGKGRASRTPKTDIAGSALAKARK
# How the values were obtained:
# HisSUMO-Mer2 (wild type) = test: Co-expression pull-down assay (NiNTA, anti-MBP immunoblot); assay type: binding, Saccharomyces cerevisiae; details: co-expressed in E. coli
# Description: Wild-type and mutant MBP-tagged Mre11-C49 and HisSUMO-tagged Mer2 were co-expressed in 50 mL of E. coli BL21 cultures and purified by affinity chromatography on Ni-NTA resin following a procedure similar to that described above. Briefly, cells were lysed by sonication and centrifuged at maximum speed for 30 mins at 4 °C on a table-top centrifuge. A small fraction of the supernatant was collected as ‘Input’ and the remainder was incubated with 120 µL Ni-NTA resin, pre-equilibrated with wash buffer (25 mM HEPES pH 7.5, 20 mM imidazole, 0.1 mM DTT, 0.1 mM PMSF, 10% glycerol), for 1 hour on a rotating wheel at 4 °C. The resin was washed twice with 2 ml in batch and five times with 2 ml on column before eluting with 250 µL of 500 mM imidazole in wash buffer. Input and elution fractions were separated by SDS-PAGE followed by immunoblotting with primary murine anti-MBP monoclonal antibody at 1:10,000 dilution (E8032S, NEB) and secondary goat anti-mouse IgG-HRP conjugated at 1:10,000 dilution (AP308P, Chemicon).
# Mer2 = test: Yeast two-hybrid; assay type: binding, Saccharomyces cerevisiae; details: SC-Leu-Ura-His + 25 mM 3-AT
# Description: Bait and prey plasmids were co-transformed into yWL365 using the standard ‘LiAc’-based transformation and plated on SC-Leu-Ura selective media. At least four independent transformants were tested for Mer2-Mre11 interaction by spotting a dilution series on SC-Leu- Ura-His + 25 mM 3-AT (3-amino-1,2,4-triazole) and growing for 4-5 days at 30 °C.
molecule,measurement,setting,value
B1,Interaction with Mer2 in pulldown (in words),HisSUMO-Mer2 (wild type),strongly decreased the interaction
same,Yeast two-hybrid interaction with Mer2 (in words),Mer2,abolished the interaction
